# According to the DeepSol protein solubility set:
# Assay: soluble on expression in E. coli; label from the status in PepcDB or PDB records
row,Sequence,soluble on expression in E. coli
1,MALGGGTFVTQNKILPGSYINFISAKRATSSLSDRGIVAIPLELDWGIDEDVFQVTSDDFEKYSVKYFGYDYTHEKLKGLRDLFKNIRLGYFYKLNKGVKASCTIATAKYSGIRGNDLKVTVTTNIDDNAKFDVVTLLDNKKVDTQIAKVITDLQDNDYITWKKDATLEASAGLVFTGGTNGEAVTGAEYQAFLDKIESYSFNALGCLATTTEIKSLFVEFTKRMRDKVGAKFQTVLYKKSDADYEGVVSVENKIKEIGLVESSLIYWAAGAIAGCDINKSNTNKKYDGEFDVDVNYTQIQLEEALKTGKFIFHKVGDEVHVLEDINTFVSFTDDKNDDFSSNQSVRVLDQIANDIATLFNEKYLGKVPNDKAGRISFWNDVVKHHKELENIRAIEDFKTDDVSVELGNDKKTVIVSDAVKVINAMSKLYMTVSVNLEHHHHHH,soluble
2,MSLVIRRLYQFCASHVVRNCSSLKCAQNIHGHNYEVEVFIETNRLDNANMALDFGLMQQEMQVFIESFDHAHHFWDKESLEFQRFIENHCVRYVKCSFNLSAESYALMFLYYLTKILQKSVFSNDEGELKVSSVRVHETKNGYAESFLKDEGHHHHHH,soluble
3,MECETDEQKQGSDENMSECETSSVCSSSDTGLFTNDEGRQGDDEQSDWFYEGECVPGFTVPNLLPKWAPDHCSEVERMDSGLDKFSDSTFLLPSRPAQRGYHTRLNRLPGAAARCLRKGRRRLVGKETSINTLGTERISHIISDPRQKDFWLPSAGKRERNQFNPLSPLYSLDVLADASHRRCSPAHCSARQANVHWGPPCSRVIKRKRKPVATASLSSPSAVHMDAVEPTTPASQAPKSPSSEWLVRTSAAEKATDATTATFFKMPQEKSPGYSLEHHHHHH,soluble
4,MNRDLPVLRALRSLPDKVVGEALVSNDAISMRYDVDASTGKVVRPSHDLYGQSISGKVLIFKNTKGGVATGWALLNLKSRGTAPIALVCDTTNPVFVQGAALAGLPIMDGFRESPRSAVRTGDVVELDGISGELKVLRRGAGGQLEHHHHHH,not soluble
5,MSLAREPRNIGASVRARLLDRARAERSDFQILLTRYALERLLYRLSASPHRDRFILKGAMLFVTWIADPFRPTRDLDLLGHGDRDTEAIAETFRAICAQPVVDDGVTFDVAALMATPIREELEYGGVRVRTTATIAGARIPIQVDIGFGDAITPAAVEIDYPTLLDAPTPHLRAYPVETVVAEKFAALVTLGVANSRLKDFYDLWVISRTFELRRAALAEAIQRTFERRGTVLPSVVPVGLTDEFAETWAAQWRAFLERDRMAAAPDAFAVTVADLRLFLMPLVVGLKEERIWPPSGPWSPGAAIDEAEGHHHHHH,soluble
6,MGSDKIHHHHHHMKDDVSAPSRYRPSIFAVPFQRHGDGTAVELLSPSEQDALIAISRLVTVRRHTVLYPEGGDARFAYNIVSGVAETYQLLPNGDKRITAFLFPRDLMGLSENGAYVATAQSLTPLVAYRIPVEALAEILERDPRLDIGLLCKLCHELRRSQHHTITVSKNEAPARLASFLVWIQHAYPEEGRAEGEVMLPMSRHDIADYLGLSVESVSRGLHVLEAQDAVRRKGPRLVTVLDPAKLRRLAGQD,not soluble
7,YTEEFDPSKYGMADSYDEQGNYIFPEGFDPETNEWLEGFDEQRQAWEARYAESERRFQLHTVQIEKNRVAAAEAAAAGEATNYSSESAEAAPAAANTEAEGGSLASDEQLAALREKLAGN,not soluble
8,MGSDKIHHHHHHMVKFIHCSDLHLDSPFKSKSHISPKIFEDVQKSAYESFKNIVDIALQQDVDFVIIAGDLFDSENRTLRAEIFLKQQFERLQNEQIFVYVCHGNHDPLSSKISSNWPDNVSVFSNKVETYEAITKSGETIYIHGFSYENRASYENKIDEYPSSQGQKGIHIGVLHGTYSKSSVNERYTEFILEDLNSKLYHYWALGHIHERQQLSDMPVINYSGNIQGRHFNEQGEKGCLLIEGDHLKLKTKFYPTQYIRFEEATIETDKTSKQGLYEVIQNFKEQVREEGKAFYRLTLVINSETLISPQDLLQVEEMITDYEENENQFVYIDELKIQYAQNDESPLVNEFSAELLVDQTVFDKAMSDLYLNPRASKFLDDYGTFDHTALVNRAEEILKAEMRGEQNDN,not soluble
9,MKVLLANPRGFCAGVDRAIEIVKRTIDMLGTPIYVRHEVVHNRFVVDDLKQRGAIFVEELHQVPDGATVIFSAHGVSQAVRRQAAQRGLKVFDATCPLVTKVHLDVARHCRTGRDMILIGHAGHPEVEGTMGQWDQERGTGRIYLVENIDDVATLHVAQPHHLAYTTQTTLSVDDTRNIIDALRQRFPTIQGPKNNDICYATQNRQDAVRELARECDLVLVVGSPNSSNSNRLSELAQREGVASYLIDSAAEIDPAWVIDKHHIGVTAGASAPQVLVDGVLARLYELGAT,not soluble
10,MSLTIYLMRHGQTYFNLWHKIQGWTDSPLTEEVIKQAKEIGRYFRENNINFDKGYSSTSERASDTLELATDHQLPYRRLKGLKEEYFGSFEAEDERLNPPVPYEDFFVKYGGESEDQVKMRMHDTMLKIARENADNSNILIVSHAGAIFNFLSTINMSIDQLFKIGFTNASVAKIEFKNDQFKVVEIINKKNNKFEVTQVNEGHHHHHH,soluble
11,MGSDKIHHHHHHMYEDYYRFSAKPFQLNPDPRFFYGSKGHKRAMAYLDYGLSLGEGFIVITGEVGAGKTTLVRNLFRQLEAHNLVAAQLVSTQLDAEDTLRSVAASFGLEHEGLTKSALLKNLESFLAAAARQGKRALLVVDEAQNLTPRAVEELRMLSNFQNDERSLIQTFLLGQPEFRGILQSPDMQQLRQRVVASYHLGPLDADETRGYIEHRLRTVGWQGMPGFDDDAFAALHRFSGGIPRRLNTTCDRLLLFGFLEEKRHFGEAEVDEVIADLRSEVAHQDFDRGAKPDARAADAFYAEDGGRLAQRIEQLERSVNRILPIVRKILYTVSEREAANDDTPQGPHDPAR,not soluble
12,CIAGHSRGGLIALIAAALKGKWAIAVSAPSDRRKQKEYLSKFPPGTVQYNIYQDLMKMPEYELEYSSLSYADRLKKVLLIHGEDDEMVLKEHSITLCDTIKRMGGDCELHIIPKMKHTPLGQQYQTIWSIIEDWIKRNS,not soluble
13,MGSDKIHHHHHHMASFPELPALRRLATLGRSWGLLSDFKYEQTRPDIFYGNLALDTSSLVAALSEDISGAGLNDLKVLDVGGGPGYFAEAFETLGATYFSVEPDVGEMSAAGIDVHGSVRGSGLDLPFLPDSFDVVYSSNVAEHVSAPWELGEEMLRVTRSGGLAILSYTIWLGPFGGHETGLWEHYVGGEFARDRYTKKHGHPPKNVFGESLFNVSCREGLEWGASVGNAELVAAFPRYHPYWVWWMVKVPVLREFAVSNLVLVFKKH,not soluble
14,NKNFTWTTELTVSRNKNKVEKLPNTVQGFDTRNLTSIQEGYSLYSYWVYNQTGVNSQTGAIEIEDVNKDGKITTADRKIMGSVFPKLFGGFNNKFTYKGIDLGIFFIYSYGNKTWNQNEALGEQGGTLGDNRVLMAGQLDRWTTPGQETMVPKLTAANYQYFEVSRFLEDASFIRLRSLTLGYTLPKKWSSAVKTEKIRFYFTGTNLLLITKYTGSDPESNLGQGNLQGYDYDTPPQPRTIQFGLNLTL,not soluble
15,MPVRYSGFDYDGCVGVTNLINIVAQNPKLAQRIRETSNYYTKEVALIASNRQSDRDDKRNARSNGNGSCFIQIQKLCTDLGMEFDPFLLADAYNLVPAGTSLHEATNPANGAKIQNGWLHDKSKASLVYAHMQRASSLEAREQIDYFFYDDREDILEGLYQFFSANPELIPSNVTMHLVKYACSRENVHTMDNYKIPVQGKGFTNPDYVKTIKAFGDKAIENARDVYDIDGKEINAAGVRQAKYNCNFEFEANKLQPMKFVNNFNSPAELIKAHEQAIEKIKLGAFELYKAKINVITTLSNEQKVFLIRAKAQQWNLLCDEGQWNNPIFTLQAIMAEKSDRFFLPQYAFTAKMLIKNYQEARENSKDGSRFWEQINAFIKSMNALKDPMRNAQSIFEVFKKNSYSVKAVDGFVKKVVEVMNALMDKYPQRSTTEMVACMRILESNLQKMVNFFSLVDRLITIYRGCTTAGLNFNKILTVVREALEEMKMITDSGDNYSTTLIDLDKVITAANNRLESLTYPKEYSTKNFHSQESYKVVGAYLCMQSQLIQKLDTKASTALAI,not soluble
16,MGSDKIHHHHHHMRALDIAATGMSAQQLRVDVISNNIANMSTTGYSPRRADFADLHYQQMVRAGAINASDGTVVPAGVQIGLGVRPAAVTVTWEQGTLGATGGQLDVAIEGRGYLEVTLPSGDNAYTRDGALQRTGDGLIVTNDGFEVNPGITIPDDAQEITINANGEVFASFRGEIQPQLLGQLNMVRFTNDNGLEAIGSNLFLETGASGAPLAGDPGEDGMGTFRQGYVEQSSVDAVREITDLIEAQRGYELNAKVLTAADQILGATTQVR,not soluble
17,MTVETQLNPTQPVNQQIYRILRRDIVHCLIPPGTPLSEKEVSTRFNVSRQPVREAFIKLAENGLIQIRPQRGSYVNKISLSQVQNGCFVRQAIECAVVRRAAAMITDNQCYQLAQNLHLQHIAIERKQIDDFFQLDDDFHQKLAQIADCQLAWDTIENIKATIDRVRYMSLDHVSPPEMLLRQHHDIFSALENRDGNAVESAMTQHLQEISESVQLIRQENSGWFSEE,not soluble
18,MHLCGVDYYQIDKQGSCKFRFKATQFYRALKNNKVSLRGIKPKDDGTTGQKLQVIPLLEMLISPGVRICDGGKFYNLQYEKAIRSGKMIVALTCKENNKKYVPQSLLSLINQPRKSQSKSLTESHEVIKISKSELNSTSVIEVYDKF,not soluble
19,GMNTNLASFIVGLIIDENDRFYFVQKDGQTYALAKEEGQHTVGDTVKGFAYTDMKQKLRLTTLEVTATQDQFGWGRVTEVRKDLGVFVDTGLPDKEIVVSLDILPELKELWPKKGDQLYIRLEVDKKDRIWGLLAYQEDFQRLARPAYNNMQNQNWPAIVYRLKLSGTFVYLPENNMLGFIHPSERYAEPRLGQVLDARVIGFREVDRTLNLSLKPRSFEMLENDAQMILTYLESNGGFMTLNDKSSPDDIKATFGISKGQFKKALGGLMKAGKIKQDQFGTELI,soluble
20,MSLKKYIITLLFCTLFCHLGIAQGLKSVSILGDSYSTFEGYVQPDTNFVWYLKTPPKGRKTDMVSVRNTWWHQFIKENNYRLCVNNSFSGATICHTGYRSEDYSDRSFITRMKALGCPDIIFIFGATNDYWAKSPLGEYKYADWSKKDLYSFRPAMAYMLDTMIDYYPNVEIYFLLNDGLGNEITESVRTICKHYQIDCIELKELDKMSGHPSVKGMKQISEQVKAYMNSRQNEGHHHHHH,not soluble
21,MAHHHHHHMGGRTAFEDVCANEAKAWSICLETNLGGKDVRKKCGEQQQTFDTCVSAWRTKVGNAVQVKGENEGDPPFQCASMACHIGECLRKYNYDFDRCEPHTQFFKYCVKSFYGQDYIS,not soluble
22,MNVCFFPRLKEFILNQDWNDPKSQLQQCCLTLRTEGKEPDIPLYKTLQTVGPSHARTYTVAVYFKGERIGCGKGPSIQQAEMGAAMDALEKYNFPQMAHQKRFIERKYRQELKEMRWEREHQEREPEEAEDIKK,soluble
23,MSPAPSRPFSVLRANDVLWLSLTAAEYDQSTYGSSTGPVYVSDSVTLVNVATGAQAVARSLDWTKVTLDGRPLSTIQQHSKTFFVLPLRGKLSFWEAGTTKAGYPYNYNTTASDQLLVENAAGHRVAISTYTTSLGAGPVSISAVAVLA,soluble
24,MRQRSSYPKPFKAQVVQECLQPGATVSSVAINHGINANVIRKWLPLYRDLPAAASLPAFVPLKAAPKRPVEASVIIELPVAGQVITVKWPASDPEGCAQFIRAFAQLEHHHHHH,not soluble
